Measured values from patent US10245299B2, “Autoassembling peptides for the treatment of pulmonary bulla” (3-D MATRIX, LTD., priority 2014, dated 2019).

Experiments:
Type in all cases: physicochemical
[1] = Gelation of peptide solutions after saline buffer treatment, time sweep; details: saline buffer (0.15 M of NaCl); IEIK13 1.5%, KLD12 1.5%, PuraMatrix® 2.5% solution
Procedure: The effect of salt ionic strength level surrounding peptide solution on the properties of peptide solutions was evaluated to identify the possibility of peptide gelation when the peptide solution is placed into the environment where salt ionic strength level is high. […] Without pH effect, the effect of saline treatment on gelation of peptide solutions were evaluated. […] This is because IEIK13 is much more sensitive to salt ionic strength levels. Fast gelation of IEIK13 at the salt ionic strength level similar to body fluid isotonic salt level may generally improve its function and gelation speed for various clinical applications. The results are shown in FIG. 19 for IEIK13, KLD12 and PuraMatrix® solutions. Time sweep tests were performed at 1 rad/sec and at 1 Pa with 20 mm plates and 500 μm gap distance. […]

[2] = Appearance of 1.5% peptide solutions with various salts at room temperature; details: for Appearance: room temperature
Procedure: The effect of salt ionic strength level on the properties of peptide solutions was evaluated to identify optimized salt ionic strength levels for the peptides as described herein. Increasing the salt ionic strength level of PuraMatrix® and other peptides may generally improve its function and mechanical strength for various clinical applications. To adjust the salt ionic strength of the peptide solutions by way of example, various salt buffer solutions including NaCl, KCl, MgCl2, CaCl2 and DPBS (10×) were added to 2 mL of 1.5% peptide solutions.

[3] = pH and appearance of 2.5% peptide solutions after adding 0.1 N NaOH
Procedure: To adjust the pH level of the peptide solutions by way of example, 0.1 N NaOH was added to 2 mL of 2.5% peptide solutions and their pH and appearance were measured.

Substance: Arg-Ala-Asp-Ala-Arg-Ala-Asp-Ala-Arg-Ala-Asp-Ala-Arg-Ala-Asp-Ala [PuraMatrix®]
- gelation after saline buffer treatment [1]: no or negligible gelation
- Appearance ([2]; PuraMatrix ® 0.5%, DPBS (pH 3.2) 1.0 M, ionic strength 1.0 M): Cloudy, phase-separated
- Appearance ([2]; PuraMatrix ® 0.55%, DPBS (pH 3.2) 0.95 M, ionic strength 0.95 M): Slightly cloudy, brittle gel
- Appearance ([2]; PuraMatrix ® 0.6%, DPBS (pH 3.2) 0.9 M, ionic strength 0.9 M): Clear, thick, stiffer gel
- Appearance ([2]; PuraMatrix ® 0.75%, DPBS (pH 3.2) 0.75 M, ionic strength 0.75 M): Clear, thick, stiffer gel
- Appearance ([2]; PuraMatrix ® 0.9%, DPBS (pH 3.2) 0.6 M, ionic strength 0.6 M): Clear, thick, stiffer gel
- Appearance ([2]; PuraMatrix ® 0.93%, KCl 1.15 M, ionic strength 1.15 M): Cloudy, phase-separated
- Appearance ([2]; PuraMatrix ® 0.95%, KCl 1.1 M, ionic strength 1.1 M): Slightly cloudy, brittle gel
- Appearance ([2]; PuraMatrix ® 0.98%, KCl 1.05 M, ionic strength 1.05 M): Slightly cloudy, thick, stiffer gel
- Appearance ([2]; PuraMatrix ® 1.0%, KCl 1.0 M, ionic strength 1.0 M): Clear, thick, stiffer gel
- Appearance ([2]; PuraMatrix ® 1.0%, NaCl 1.0 M, ionic strength 1.0 M): Cloudy, phase-separated
- Appearance ([2]; PuraMatrix ® 1.03%, KCl 0.95 M, ionic strength 0.95 M): Clear, thick, stiffer gel
- Appearance ([2]; PuraMatrix ® 1.03%, NaCl 0.95 M, ionic strength 0.95 M): Cloudy, phase-separated
- Appearance ([2]; PuraMatrix ® 1.05%, DPBS (pH 3.2) 0.45 M, ionic strength 0.45 M): Clear, thick, stiffer gel
- Appearance ([2]; PuraMatrix ® 1.05%, KCl 0.9 M, ionic strength 0.9 M): Clear, thick, stiffer gel
- Appearance ([2]; PuraMatrix ® 1.05%, NaCl 0.9 M, ionic strength 0.9 M): Slightly cloudy, brittle gel
- Appearance ([2]; PuraMatrix ® 1.08%, NaCl 0.85 M, ionic strength 0.85 M): Clear, thick, stiffer gel
- Appearance ([2]; PuraMatrix ® 1.10%, NaCl 0.8 M, ionic strength 0.8 M): Clear, thick, stiffer gel
- Appearance ([2]; PuraMatrix ® 1.13%, KCl 0.75 M, ionic strength 0.75 M): Clear, thick, stiffer gel
- Appearance ([2]; PuraMatrix ® 1.13%, NaCl 0.75 M, ionic strength 0.75 M): Clear, thick, stiffer gel
- Appearance ([2]; PuraMatrix ® 1.2%, DPBS (pH 3.2) 0.3 M, ionic strength 0.3 M): Clear, thick, stiffer gel
- Appearance ([2]; PuraMatrix ® 1.2%, KCl 0.6 M, ionic strength 0.6 M): Clear, thick, stiffer gel
- Appearance ([2]; PuraMatrix ® 1.2%, NaCl 0.6 M, ionic strength 0.6 M): Clear, thick, stiffer gel
- Appearance ([2]; PuraMatrix ® 1.27%, KCl 0.45 M, ionic strength 0.45 M): Clear, thick, stiffer gel
- Appearance ([2]; PuraMatrix ® 1.27%, NaCl 0.45 M, ionic strength 0.45 M): Clear, thick, stiffer gel
- Appearance ([2]; PuraMatrix ® 1.28%, CaCl2 0.433 M, ionic strength 1.3 M): Cloudy, phase-separated
- Appearance ([2]; PuraMatrix ® 1.28%, MgCl2 0.433 M, ionic strength 1.3 M): Cloudy, phase-separated
- Appearance ([2]; PuraMatrix ® 1.29%, CaCl2 0.417 M, ionic strength 1.25 M): Slightly cloudy, brittle gel
- Appearance ([2]; PuraMatrix ® 1.29%, MgCl2 0.417 M, ionic strength 1.25 M): Slightly cloudy, brittle gel
- Appearance ([2]; PuraMatrix ® 1.3%, CaCl2 0.4 M, ionic strength 1.2 M): Slightly cloudy, thick, stiffer gel
- Appearance ([2]; PuraMatrix ® 1.3%, MgCl2 0.4 M, ionic strength 1.2 M): Slightly cloudy, thick, stiffer gel
- Appearance ([2]; PuraMatrix ® 1.31%, CaCl2 0.383 M, ionic strength 1.15 M): Clear, thick, stiffer gel
- Appearance ([2]; PuraMatrix ® 1.31%, MgCl2 0.383 M, ionic strength 1.15 M): Clear, thick, stiffer gel
- Appearance ([2]; PuraMatrix ® 1.32%, CaCl2 0.35 M, ionic strength 1.05 M): Clear, thick, stiffer gel
- Appearance ([2]; PuraMatrix ® 1.32%, MgCl2 0.35 M, ionic strength 1.05 M): Clear, thick, stiffer gel
- Appearance ([2]; PuraMatrix ® 1.35%, CaCl2 0.3 M, ionic strength 0.9 M): Clear, thick, stiffer gel
- Appearance ([2]; PuraMatrix ® 1.35%, DPBS (pH 3.2) 0.15 M, ionic strength 0.15 M): Clear, thick, stiffer gel
- Appearance ([2]; PuraMatrix ® 1.35%, KCl 0.3 M, ionic strength 0.3 M): Clear, thick, stiffer gel
- Appearance ([2]; PuraMatrix ® 1.35%, MgCl2 0.3 M, ionic strength 0.9 M): Clear, thick, stiffer gel
- Appearance ([2]; PuraMatrix ® 1.35%, NaCl 0.3 M, ionic strength 0.3 M): Clear, thick, stiffer gel
- Appearance ([2]; PuraMatrix ® 1.38%, CaCl2 0.25 M, ionic strength 0.75 M): Clear, thick, stiffer gel
- Appearance ([2]; PuraMatrix ® 1.38%, MgCl2 0.25 M, ionic strength 0.75 M): Clear, thick, stiffer gel
- Appearance ([2]; PuraMatrix ® 1.4%, CaCl2 0.2 M, ionic strength 0.6 M): Clear, thick, stiffer gel
- Appearance ([2]; PuraMatrix ® 1.4%, MgCl2 0.2 M, ionic strength 0.6 M): Clear, thick, stiffer gel
- Appearance ([2]; PuraMatrix ® 1.43%, CaCl2 0.15 M, ionic strength 0.45 M): Clear, thick, stiffer gel
- Appearance ([2]; PuraMatrix ® 1.43%, KCl 0.15 M, ionic strength 0.15 M): Clear, thick, stiffer gel
- Appearance ([2]; PuraMatrix ® 1.43%, MgCl2 0.15 M, ionic strength 0.45 M): Clear, thick, stiffer gel
- Appearance ([2]; PuraMatrix ® 1.43%, NaCl 0.15 M, ionic strength 0.15 M): Clear, thick, stiffer gel
- Appearance ([2]; PuraMatrix ® 1.45%, CaCl2 0.1 M, ionic strength 0.3 M): Clear, thick, stiffer gel
- Appearance ([2]; PuraMatrix ® 1.45%, MgCl2 0.1 M, ionic strength 0.3 M): Clear, thick, stiffer gel
- Appearance ([2]; PuraMatrix ® 1.48%, CaCl2 0.05 M, ionic strength 0.15 M): Clear, thick, stiffer gel
- Appearance ([2]; PuraMatrix ® 1.48%, MgCl2 0.05 M, ionic strength 0.15 M): Clear, thick, stiffer gel
- Appearance ([2]; PuraMatrix ® 1.5%, CaCl2 0 M, ionic strength 0 M): Clear, thick gel
- Appearance ([2]; PuraMatrix ® 1.5%, DPBS (pH 3.2) 0 M, ionic strength 0 M): Clear, thick gel
- Appearance ([2]; PuraMatrix ® 1.5%, KCl 0 M, ionic strength 0 M): Clear, thick gel
- Appearance ([2]; PuraMatrix ® 1.5%, MgCl2 0 M, ionic strength 0 M): Clear, thick gel
- Appearance ([2]; PuraMatrix ® 1.5%, NaCl 0 M, ionic strength 0 M): Clear, thick gel
- salt ionic strength increase that did not change the clear color of the solution (apparent stiffness increased) ([2]; depending on different salts, 1.5% peptide solutions): 0.85˜1.15 M
- Appearance ([3]; 0.1N NaOH 0 μL/mL, conc. 2.5%, pH 2.2): Clear, thick gel
- Appearance ([3]; 0.1N NaOH 50 μL/mL, conc. 2.38%, pH 2.3): Clear, thick gel
- Appearance ([3]; 0.1N NaOH 100 μL/mL, conc. 2.27%, pH 2.4): Clear, thick gel
- Appearance ([3]; 0.1N NaOH 150 μL/mL, conc. 2.17%, pH 2.7): Clear, thick,
- Appearance ([3]; 0.1N NaOH 200 μL/mL, conc. 2.08%, pH 2.9): Clear, thick,
- Appearance ([3]; 0.1N NaOH 250 μL/mL, conc. 2.0%, pH 3.2): Clear, thick,
- Appearance ([3]; 0.1N NaOH 275 μL/mL, conc. 1.96%, pH 3.4): Clear, thick,
- Appearance ([3]; 0.1N NaOH 300 μL/mL, conc. 1.92%, pH 3.6): Slightly cloudy,
- Appearance ([3]; 0.1N NaOH 350 μL/mL, conc. 1.85%, pH 4.5): Cloudy, phase-
- Peptide solution pH ([3]; 0.1N NaOH added in 2.5% solution 0 μL/mL, conc. 2.5%): 2.2
- Peptide solution pH ([3]; 0.1N NaOH added in 2.5% solution 50 μL/mL, conc. 2.38%): 2.3
- Peptide solution pH ([3]; 0.1N NaOH added in 2.5% solution 100 μL/mL, conc. 2.27%): 2.4
- Peptide solution pH ([3]; 0.1N NaOH added in 2.5% solution 150 μL/mL, conc. 2.17%): 2.7
- Peptide solution pH ([3]; 0.1N NaOH added in 2.5% solution 200 μL/mL, conc. 2.08%): 2.9
- Peptide solution pH ([3]; 0.1N NaOH added in 2.5% solution 250 μL/mL, conc. 2.0%): 3.2
- Peptide solution pH ([3]; 0.1N NaOH added in 2.5% solution 275 μL/mL, conc. 1.96%): 3.4
- Peptide solution pH ([3]; 0.1N NaOH added in 2.5% solution 300 μL/mL, conc. 1.92%): 3.6
- Peptide solution pH ([3]; 0.1N NaOH added in 2.5% solution 350 μL/mL, conc. 1.85%): 4.5
- Appearance ([3]; pH 7.0): Cloudy, phase-
